Columns and labels:
GDM_VEGFA_54 [1] = assay: reported in original publication
VEGF-A Binder 13 [2] = assay: BLI; KD1
VEGF-A_Binder_13 = assay: BLI
GDM_VEGFA_54 [3] = assay: BLI
VEGF-A Binder 13 [4] = assay: BLI; KD2, second site

Kd (GDM_VEGFA_54 [1]): 0.48 nM
Kd (VEGF-A Binder 13 [2]): 26.4 nM
Kd (VEGF-A_Binder_13): 13.4 nM
Kd (GDM_VEGFA_54 [3]): 10.1 nM
Kd (VEGF-A Binder 13 [4]): 86.4 nM
B1: Vascular Endothelial Growth Factor A (VEGF-A) (ligand)
chain: MTDRQTDTAPSPSYHLLPGRRRTVDAAASRGQGPEPAPGGGVEGVGARGVALKLFVQLLGCSRFGGAVVRAGEAEPSGAARSASSGREEPQPEEGEEEEEKEEERGPQWRLGARKPGSWTGEAAVCADSAPAARAPQALARASGRGGRVARRGAEESGPPHSPSRRGSASRAGPGRASETMNFLLSWVHWSLALLLYLHHAKWSQAAPMAEGGGQNHHEVVKFMDVYQRSYCHPIETLVDIFQEYPDEIEYIFKPSCVPLMRCGGCCNDEGLECVPTEESNITMQIMRIKPHQGQHIGEMSFLQHNKCECRPKKDRARQEKKSVRGKGKGQKRKRKKSRYKSWSVPCGPCSERRKHLFVQDPQTCKCSCKNTDSRCKARQLELNERTCRCDKPRR
